Source: PMC13083955

Key:
[1] = molecular target: Dsk2 UBA (Saccharomyces cerevisiae) (UniProt P48510); conditions: cited from earlier work
[2] = molecular target: full-length Dsk2 (yeast (S. cerevisiae)) (UniProt P48510)

Row | Substance | Kd [1] [µM] | phase separation of Dsk2 alone, saturation concentration (csat) against temperature (20 mM NaPhosphate pH 6.8, 150 mM NaCl, 7.5% PEG 8000, 0.5 mM EDTA) [2] [µM]
1 | Dsk2 UBL (from UniProt P48510) | 80 | 
2 | full-length Dsk2 (from UniProt P48510 1-373) (natural protein) |  | 10
